US20190142971A1, “FORMULATION AND DELIVERY OF MODIFIED NUCLEOSIDE, NUCLEOTIDE, AND NUCLEIC ACID COMPOSITIONS” (ModernaTX, Inc., priority 2013, published 2019)

Legend:
Format in all cases: in vivo
mice [1] = assay: Example 42B: EPO mRNA dose response IM in mice (Table 68); conditions: Dose Vol. (μl/mouse) 100, 13 hours
Method: The mice were bled at 13 hours after the injection to determine the concentration of the human polypeptide in serum in pg/mL.

C57/BL6 mice = assay: Example 34: EPO mRNA in buffer IM or SC in mice, serum EPO (Table 60); conditions: dose 100 μg, 13 hours post injection
Method: Mice were intramuscularly or subcutaneously injected with 50 μl of the modified human EPO mRNA (h-EPO), modified luciferase mRNA (Luc) or the formulation buffer (F.Buffer) as described in the dosing chart Table 60. 13 hours post injection blood was collected and serum was analyzed to determine the amount human EPO for each mouse or rat.

Sprague-Dawley rats = assay: Example 35: duration after IM EPO mRNA in rats, serum EPO (Table 61); conditions: rats IM 100 μg, 24, 48 and 72 hour
Method: The rats were bled 2, 6, 12, 24, 48 and 72 hours after the intramuscular injection to determine the concentration of human EPO in serum at a given time.

[2] = system: non-human primates (cynomolgus monkey); assay: Example 22: LNP IV in non-human primates, serum G-CSF/EPO ELISA (Tables 38, 39)
Method: LNP formulations, shown in Table 33 (above), were administered to non-human primates (NHP) (cynomolgus monkey) (n=2) as intravenous injection (IV). The NHP were administered a single modified mRNA IV dose of 0.5 mg/kg, 0.05 mg/kg or 0.005 mg/kg of G-CSF or EPO in a dose volume of 0.5 mL/kg. The NHPs were bled before dosing with the modified mRNA LNP formulations to determine protein expression in the serum and a baseline complete blood count. After administration with the G-CSF modified mRNA formulation the NHP were bled at 8, 24, 48 and 72 hours to determined protein expression. After administration with the EPO modified mRNA formulation the NHP were bled at 8, 24, 48, 72 hours and 7 days to determined protein expression.
Samples collected from the NHPs after they were administered with G-CSF or EPO modified mRNA formulations were analyzed by ELISA to determine protein expression. Neutrophil and reticulocyte count was also determined pre-dose, 24 hours, 3 days, 7 days, 14 days and 18 days after administration of the modified G-CSF or EPO formulation.

mice [3] = assay: Example 18: time course LNP IV in mice, serum EPO/G-CSF ELISA (Table 35); conditions: for EPO / G-CSF Serum Concentration: mice, LNP IV
Method: (§1) Formulations, listed in Table 33, were characterized by particle size, zeta potential, and encapsulation.
LNP formulations, shown in Table 33 (above), were administered to mice (n=5) intravenously (IV) at a single modified mRNA dose of 0.5, 0.05 or 0.005 mg/kg. The mice were bled at 8 hours, 24 hours, 72 hours and 6 days after they were administered with G-CSF or EPO modified mRNA formulations to determine protein expression using ELISA.

[4] = system: non-human primates (cynomolgus monkey); assay: Example 21: LNP IV in non-human primates, serum EPO/G-CSF ELISA (Table 37); conditions: for Average Serum Concentration / Female NHP Serum Concentration / Male NHP Serum Concentration: 0.05 mg/kg IV
Method: as §1
LNP formulations, shown in Table 33 (above), were administered to non-human primates (NHP) (cynomolgus monkey) (n=2) as a bolus intravenous injection (IV) over approximately 30 seconds using a hypodermic needle, which may be attached to a syringe/abbocath or butterfly if needed. The NHP were administered a single modified mRNA IV dose of 0.05 mg/kg of EPO or G-CSF or 0.005 mg/kg of EPO in a dose volume of 0.5 mL/kg. The NHPs were bled 5-6 days before dosing with the modified mRNA LNP formulations to determine protein expression in the serum and a baseline complete blood count. After administration with the modified mRNA formulation the NHP were bled at 8, 24, 48 and 72 hours to determined protein expression. At 24 and 72 hours after administration the complete blood count of the NHP was also determined. Protein expression of G-CSF and EPO was determined by ELISA. Urine from the NHPs was collected over the course of the entire experiment and analyzed to evaluate clinical safety. Samples were collected from the NHPs after they were administered with G-CSF or EPO modified mRNA formulations to determine protein expression using ELISA. Clinical chemistry, hematology, urinalysis and cytokines of the non-human primates were also analyzed.

Molecule: Luciferase: luciferase mRNA, SEQ ID NO: 14, Cap1, fully modified with 5-methylcytosine and pseudouridine
- Average Protein Product, serum (mice [1]): 0.0 pg/mL
- Average Level in serum (human EPO) (C57/BL6 mice; mice IM): 0 pg/mL
- Average Level in serum (human EPO) (C57/BL6 mice; mice SC): 26.7 pg/mL
- human EPO in serum, Avg. (Sprague-Dawley rats): 37.2 pg/mL
- human EPO in serum, Geometric-mean (Sprague-Dawley rats): 29.2 pg/mL

B1: G-CSF: modified mRNA encoding human G-CSF, SEQ ID NO: 4, Cap1, fully modified with 5-methylcytosine and pseudouridine; LNP-formulated in Examples 16-22 (nucleic acid)
chain: GGGAAAUAAGAGAGAAAAGAAGAGUAAGAAGAAAUAUAAGAGCCACCAUGGCCGGUCCCGCGACCCAAAGCCCCAUGAAACUUAUGGCCCUGCAGUUGCUGCUUUGGCACUCGGCCCUCUGGACAGUCCAAGAAGCGACUCCUCUCGGACCUGCCUCAUCGUUGCCGCAGUCAUUCCUUUUGAAGUGUCUGGAGCAGGUGCGAAAGAUUCAGGGCGAUGGAGCCGCACUCCAAGAGAAGCUCUGCGCGACAUACAAACUUUGCCAUCCCGAGGAGCUCGUACUGCUCGGGCACAGCUUGGGGAUUCCCUGGGCUCCUCUCUCGUCCUGUCCGUCGCAGGCUUUGCAGUUGGCAGGGUGCCUUUCCCAGCUCCACUCCGGUUUGUUCUUGUAUCAGGGACUGCUGCAAGCCCUUGAGGGAAUCUCGCCAGAAUUGGGCCCGACGCUGGACACGUUGCAGCUCGACGUGGCGGAUUUCGCAACAACCAUCUGGCAGCAGAUGGAGGAACUGGGGAUGGCACCCGCGCUGCAGCCCACGCAGGGGGCAAUGCCGGCCUUUGCGUCCGCGUUUCAGCGCAGGGCGGGUGGAGUCCUCGUAGCGAGCCACCUUCAAUCAUUUUUGGAAGUCUCGUACCGGGUGCUGAGACAUCUUGCGCAGCCGUGAAGCGCUGCCUUCUGCGGGGCUUGCCUUCUGGCCAUGCCCUUCUUCUCUCCCUUGCACCUGUACCUCUUGGUCUUUGAAUAAAGCCUGAGUAGGAAG
modifications: Cap1, 5-methylcytosine, pseudouridine
- Female NHP Serum G-CSF / EPO Concentration ([2]; 0.005 mg/kg IV, 8 hours): 559 pg/mL
- Male NHP Serum G-CSF / EPO Concentration ([2]; 0.005 mg/kg IV, 8 hours): 700 pg/mL
- Female NHP Serum G-CSF / EPO Concentration ([2]; 0.005 mg/kg IV, 24 hours): 155 pg/mL
- Male NHP Serum G-CSF / EPO Concentration ([2]; 0.005 mg/kg IV, 24 hours): <39 pg/mL
- Female NHP Serum G-CSF / EPO Concentration ([2]; 0.005 mg/kg IV, 48 hours): <39 pg/mL
- Male NHP Serum G-CSF / EPO Concentration ([2]; 0.005 mg/kg IV, 48 hours): <39 pg/mL
- Female NHP Serum G-CSF / EPO Concentration ([2]; 0.005 mg/kg IV, 72 hours): <39 pg/mL
- Male NHP Serum G-CSF / EPO Concentration ([2]; 0.005 mg/kg IV, 72 hours): <39 pg/mL
- Female NHP Serum G-CSF / EPO Concentration ([2]; 0.005 mg/kg IV, Pre-bleed): <39 pg/mL
- Male NHP Serum G-CSF / EPO Concentration ([2]; 0.005 mg/kg IV, Pre-bleed): <39 pg/mL
- Female NHP Serum G-CSF / EPO Concentration ([2]; 0.05 mg/kg IV, 8 hours): 3,289 pg/ml
- Male NHP Serum G-CSF / EPO Concentration ([2]; 0.05 mg/kg IV, 8 hours): 1,722 pg/ml
- Female NHP Serum G-CSF / EPO Concentration ([2]; 0.05 mg/kg IV, 24 hours): 722 pg/mL
- Male NHP Serum G-CSF / EPO Concentration ([2]; 0.05 mg/kg IV, 24 hours): 307 pg/mL
- Female NHP Serum G-CSF / EPO Concentration ([2]; 0.05 mg/kg IV, 48 hours): <39 pg/mL
- Male NHP Serum G-CSF / EPO Concentration ([2]; 0.05 mg/kg IV, 48 hours): <39 pg/mL
- Female NHP Serum G-CSF / EPO Concentration ([2]; 0.05 mg/kg IV, 72 hours): <39 pg/mL
- Male NHP Serum G-CSF / EPO Concentration ([2]; 0.05 mg/kg IV, 72 hours): <39 pg/mL
- Female NHP Serum G-CSF / EPO Concentration ([2]; 0.05 mg/kg IV, Pre-bleed): <39 pg/mL
- Male NHP Serum G-CSF / EPO Concentration ([2]; 0.05 mg/kg IV, Pre-bleed): <39 pg/mL
- Female NHP Serum G-CSF / EPO Concentration ([2]; 0.5 mg/kg IV, 8 hours): 43,525 pg/ml
- Male NHP Serum G-CSF / EPO Concentration ([2]; 0.5 mg/kg IV, 8 hours): 43,594 pg/ml
- Female NHP Serum G-CSF / EPO Concentration ([2]; 0.5 mg/kg IV, 24 hours): 11,374 pg/ml
- Male NHP Serum G-CSF / EPO Concentration ([2]; 0.5 mg/kg IV, 24 hours): 3,628 pg/ml
- Female NHP Serum G-CSF / EPO Concentration ([2]; 0.5 mg/kg IV, 48 hours): 1,100 pg/ml
- Male NHP Serum G-CSF / EPO Concentration ([2]; 0.5 mg/kg IV, 48 hours): 833 pg/mL
- Female NHP Serum G-CSF / EPO Concentration ([2]; 0.5 mg/kg IV, 72 hours): <39 pg/mL
- Male NHP Serum G-CSF / EPO Concentration ([2]; 0.5 mg/kg IV, 72 hours): 306 pg/mL
- Female NHP Serum G-CSF / EPO Concentration ([2]; 0.5 mg/kg IV, Pre-bleed): <39 pg/mL
- Male NHP Serum G-CSF / EPO Concentration ([2]; 0.5 mg/kg IV, Pre-bleed): <39 pg/mL
- protein expression not detected beyond ([2]; NHP IV): ≤ 72 h
- protein expression detectable out to (mice [3]; mice IV, 0.005 mg/kg and 0.05 mg/kg): 72 h
- EPO / G-CSF Serum Concentration (mice [3]; 0.005 mg/kg, 8 hours): 11,550.6 pg/ml
- EPO / G-CSF Serum Concentration (mice [3]; 0.005 mg/kg, 24 hours): 5,068.9 pg/ml
- EPO / G-CSF Serum Concentration (mice [3]; 0.05 mg/kg, 8 hours): 462,312.5 pg/ml
- EPO / G-CSF Serum Concentration (mice [3]; 0.05 mg/kg, 24 hours): 80,903.8 pg/ml
- EPO / G-CSF Serum Concentration (mice [3]; 0.5 mg/kg, 8 hours): >1,250,000 pg/ml
- EPO / G-CSF Serum Concentration (mice [3]; 0.5 mg/kg, 24 hours): 495,812.5 pg/ml
- EPO / G-CSF Serum Concentration (mice [3]; 0.5 mg/kg, 72 hours): 1,325.6 pg/ml
- Average Serum Concentration ([4]; 8 hours): 2,506 pg/ml
- Female NHP Serum Concentration ([4]; 8 hours): 3289 pg/mL
- Male NHP Serum Concentration ([4]; 8 hours): 1722 pg/mL
- Average Serum Concentration ([4]; 24 hours): 515 pg/mL
- Female NHP Serum Concentration ([4]; 24 hours): 722 pg/mL
- Male NHP Serum Concentration ([4]; 24 hours): 307 pg/mL
- Average Serum Concentration ([4]; 48 hours): 0 pg/mL
- Female NHP Serum Concentration ([4]; 48 hours): 0 pg/mL
- Male NHP Serum Concentration ([4]; 48 hours): 0 pg/mL
- Average Serum Concentration ([4]; 72 hours): 0 pg/mL
- Female NHP Serum Concentration ([4]; 72 hours): 0 pg/mL
- Male NHP Serum Concentration ([4]; 72 hours): 0 pg/mL
- Average Serum Concentration ([4]; Pre-bleed): 0 pg/mL
- Female NHP Serum Concentration ([4]; Pre-bleed): 0 pg/mL
- Male NHP Serum Concentration ([4]; Pre-bleed): 0 pg/mL
- protein expression detectable out to ([4]; NHP IV, 0.05 mg/kg): 24 h
